Laboratory results reported in US20130267686A1 (HOFFMAN LA ROCHE, published 2013).
Substitutions are numbered along the chain they refer to.

Tests used:
Assay in all cases: SPR (Biacore)
HER3 = biological target: T1, HER3 (UniProt P21860 20-643, limits assumed)
T1 construct: Antigen as used in Biacore; also called ErbB3

cMet [1] = biological target: T2, cMet (UniProt P08581 25-932, limits assumed)
T2 construct: Antigen as used in Biacore

cMet [2] = biological target: T2, cMet; remark: listed apart in the source

T2 sequence (P08581 25-932 limits assumed): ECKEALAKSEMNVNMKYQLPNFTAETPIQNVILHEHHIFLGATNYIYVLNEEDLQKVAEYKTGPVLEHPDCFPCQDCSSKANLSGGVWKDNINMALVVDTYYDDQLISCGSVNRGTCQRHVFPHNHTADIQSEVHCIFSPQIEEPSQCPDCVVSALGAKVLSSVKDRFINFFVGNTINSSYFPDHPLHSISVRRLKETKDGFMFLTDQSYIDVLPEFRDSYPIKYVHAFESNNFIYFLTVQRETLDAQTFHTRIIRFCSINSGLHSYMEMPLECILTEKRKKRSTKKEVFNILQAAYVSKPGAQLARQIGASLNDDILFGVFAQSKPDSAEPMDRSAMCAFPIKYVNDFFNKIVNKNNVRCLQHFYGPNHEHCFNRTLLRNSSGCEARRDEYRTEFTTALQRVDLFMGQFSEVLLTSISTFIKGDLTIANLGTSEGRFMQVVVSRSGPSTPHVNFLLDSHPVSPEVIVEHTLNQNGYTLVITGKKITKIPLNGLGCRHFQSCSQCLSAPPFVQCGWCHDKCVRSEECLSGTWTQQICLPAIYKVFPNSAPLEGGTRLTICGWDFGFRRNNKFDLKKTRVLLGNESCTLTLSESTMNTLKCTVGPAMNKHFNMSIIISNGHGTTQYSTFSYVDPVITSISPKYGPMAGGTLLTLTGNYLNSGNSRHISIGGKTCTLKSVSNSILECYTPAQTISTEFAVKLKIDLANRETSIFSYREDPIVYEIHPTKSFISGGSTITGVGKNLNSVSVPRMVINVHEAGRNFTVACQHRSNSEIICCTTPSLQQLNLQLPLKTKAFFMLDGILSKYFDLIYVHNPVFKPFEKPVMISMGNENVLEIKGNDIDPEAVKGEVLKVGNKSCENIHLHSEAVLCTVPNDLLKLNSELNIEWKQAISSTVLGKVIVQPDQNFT

B1: Her3_MetSS_KHSS_FS1 (protease cleavage during expression) (bispecific antibody)
heavy 1: not shown
heavy 2: not shown
chain: ALGGGGSGGGGSDIQMTQSPSSLSASVGDRVTITCKSSQSLLYTSSQKNYLAWYQQKPGKAPKLLIYWASTRESGVPSRFSGSGSGTDFTLTISSLQPEDFATYYCQQYYAYPWTFGCGTKVEIKR
light: DIQMTQTTSSLSASLGDRVTISCRARQDISNYLNWYQRKPDGTVKLLIYYTSRLHSGVPSRFSGSGSGTDYSLTISNLEQEDIATYFCQQGNTFPWTFGGGTKLEIKRTVAAPSVFIFPPSDEQLKSGTASVVCLLNNFYPREAKVQWKVDNALQSGNSQESVTEQDSKDSTYSLSSTLTLSKADYEKHKVYACEVTHQGLSSPVTKSFNRGEC
notes: Trivalent Her3-cMet bispecific: full length anti-Her3 IgG with knobs-into-holes, cMet dsFv (VHCys44/VLCys100) at the C-termini; Arg/Lys residues before the cleavage site were removed
Kd (HER3): 2.05 nM | koff (HER3): 0.000338 s⁻¹ | kon (HER3): 165000 M⁻¹ s⁻¹ | Kd (cMet [1]): 6.05 nM | koff (cMet [1]): 0.000188 s⁻¹ | kon (cMet [1]): 31200 M⁻¹ s⁻¹

B2: Her3_MetSS_KHSS_PreSci_digested (after purification and protease cleavage) (bispecific antibody)
heavy 1: not shown
heavy 2: not shown
chain: GPSGGGGSGGGGSDIQMTQSPSSLSASVGDRVTITCKSSQSLLYTSSQKNYLAWYQQKPGKAPKLLIYWASTRESGVPSRFSGSGSGTDFTLTISSLQPEDFATYYCQQYYAYPWTFGCGTKVEIKR
light: B1 light
notes: the VL stays attached through the dsFv disulfide
fold improved affinity against the restricted form (cMet [2]): > 30 fold | Kd (HER3): 2.02 nM | koff (HER3): 0.000356 s⁻¹ | kon (HER3): 176000 M⁻¹ s⁻¹ | Kd (cMet [1]): 8.35 nM | koff (cMet [1]): 0.000203 s⁻¹ | kon (cMet [1]): 24300 M⁻¹ s⁻¹

B3: Her3_MetSS_KHSS_PreSci (purified intermediate) (bispecific antibody, human IgG1, kappa)
heavy 1: not shown
heavy 2: not shown
light: B1 light
notes: also called restricted dsFv module; double-tethered dsFv
fold reduced affinity against the Wildtype Fab (cMet [2]): > 20 fold | Kd (HER3): 2.4 nM | koff (HER3): 0.000414 s⁻¹ | kon (HER3): 172000 M⁻¹ s⁻¹ | Kd (cMet [1]): 369 nM | koff (cMet [1]): 0.000197 s⁻¹ | kon (cMet [1]): 533 M⁻¹ s⁻¹

B4: Her3_MetSS_KHSS_FS2 (protease cleavage during expression) (bispecific antibody)
heavy 1: not shown
heavy 2: not shown
chain: B1 chain with A1S
light: B1 light
notes: As m1 but with furin site variant 2
Kd (cMet [1]): 7.05 nM | koff (cMet [1]): 0.000193 s⁻¹ | kon (cMet [1]): 27400 M⁻¹ s⁻¹
